Test results from patent US20260108617A1, “AUTO-TUNING DRUG REGULATOR CONSTRUCTIONS” (priority 2023, published 2026).

Experiments:
[1] = Cell uptake by imaging of conjugated dancyl fluorophore; type: cell-based; conditions: data not shown
From the text: Compound 9 was shown efficacious in these experiments.

[2] = biological target: recombinant prostasin enzyme (Homo sapiens, UniProt Q16651); assay: Incubation with recombinant prostasin enzyme, LC/MS analysis of incapacitation byproduct; type: biochemical
Sequence of recombinant prostasin enzyme (Q16651 33-343, species assumed): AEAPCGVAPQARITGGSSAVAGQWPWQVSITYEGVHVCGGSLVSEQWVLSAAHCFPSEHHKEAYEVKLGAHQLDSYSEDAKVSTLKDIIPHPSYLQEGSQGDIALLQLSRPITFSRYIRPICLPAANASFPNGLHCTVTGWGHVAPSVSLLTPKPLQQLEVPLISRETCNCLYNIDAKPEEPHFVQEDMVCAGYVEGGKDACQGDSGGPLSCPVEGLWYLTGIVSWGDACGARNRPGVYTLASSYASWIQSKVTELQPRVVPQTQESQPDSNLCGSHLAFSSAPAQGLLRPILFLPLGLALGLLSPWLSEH
Method: This is not observed in absence of the enzyme incubation.
Then in FIG. 10, incubation of the drug alone with the prostasin enzyme can be analyzed by LC/MS for the byproduct of incapacitation (the alkylation of the decoy yielding a 1-methylpiperazine-one).
The drug could be tested in similar ways as the other compounds.
The strategy of this example can be generalized for any peptide based PROTAC for TrkA or any other target.

Row | Sequence | cell uptake [1] | incapacitation byproduct seen by LC/MS ([2]; absence of the enzyme incubation) | incapacitation byproduct seen by LC/MS ([2]; incubated with recombinant prostasin enzyme)
1 | RRARRPRGRQAR | demonstrated for cell uptake |  | 
2 | LFLGQARGGRRRRPPP |  | not observed | independent activator byproduct
